Test results reported in patent US20160068595A1.

Tests used:
[1] = biological target: human IL-20 (interleukin-20), recombinant (human) (UniProt Q9NYY1); experiment: SPR, BIAcore T100; antibody captured on anti-human IgG CM5 chip, IL-20 as analyte, 1:1 model
[2] = biological target: human IL-20 (interleukin-20), recombinant (human) (UniProt Q9NYY1); experiment: binding kinetics of CDR mutants; method not named

Sequence of human IL-20 (interleukin-20), recombinant (human) (Q9NYY1 25-176 limits assumed): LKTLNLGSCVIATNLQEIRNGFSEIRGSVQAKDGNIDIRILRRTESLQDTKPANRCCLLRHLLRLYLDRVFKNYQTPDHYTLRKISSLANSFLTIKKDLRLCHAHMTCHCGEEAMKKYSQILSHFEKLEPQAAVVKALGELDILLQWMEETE

Kd [1]: 2.68 nM
koff [1]: 0.00358 s⁻¹
kon [1]: 1.34e+06 M⁻¹ s⁻¹
Kd [2]: 2.68 nM
koff [2]: 0.00358 s⁻¹
kon [2]: 1.34e+06 M⁻¹ s⁻¹
B1: HH12 humanized anti-IL-20 antibody (antibody, V domains shown)
VH: EVQLQESGGGLVQPGGSLRLSCAASGFTFSDAWMDWVRQAPGKGLEWVGEIRSKANNYATYFAESVKGRFTISRDDSKNSLYLQMNSLKTEDTGVYYCTKLSLRYWFFDVWGQGTLVTVSS
VL: DIQMTQSPLSLSVTPGQPASISCKSSQSLLDSDGKTYLNWYQQKPGQSPQLLIYLVSKLDSGVPDRFSGSGSGTDFTLKISRVEAEDVGVYYCWQSTHFPWTFGQGTKVEIKR
